Laboratory results: patent publication US20160272693A1 (ZEALAND PHARMA A S, published 2016)
*1 amine or outer side, *2 acyl side, *3 side chain or, on linkers, in order; H or OH if unused. Bridges are numbered along the chain shown (N, C = ends). [ ]: non-standard residue; d: D form. The star is where a group is joined. C20 diacid = O=C(O)CCCCCCCCCCCCCCCCCCC(=O)*; γGlu = O=C(O)[C@H](CCC(=O)[*:2])N[*:1]; Hyp = O=C(O)[C@@H]1C[C@@H](O)CN1; NMeI = CC[C@H](C)[C@H](NC)C(=O)O; Sar = CNCC(=O)O

T1: human amylin receptor 3 (hAMYR3), hCTR2 co-expressed with human receptor activity modifying protein 3 (hRAMP3) (human, UniProt P30988 25-474; O60896 24-148)
T1 sequence (looked up) 1: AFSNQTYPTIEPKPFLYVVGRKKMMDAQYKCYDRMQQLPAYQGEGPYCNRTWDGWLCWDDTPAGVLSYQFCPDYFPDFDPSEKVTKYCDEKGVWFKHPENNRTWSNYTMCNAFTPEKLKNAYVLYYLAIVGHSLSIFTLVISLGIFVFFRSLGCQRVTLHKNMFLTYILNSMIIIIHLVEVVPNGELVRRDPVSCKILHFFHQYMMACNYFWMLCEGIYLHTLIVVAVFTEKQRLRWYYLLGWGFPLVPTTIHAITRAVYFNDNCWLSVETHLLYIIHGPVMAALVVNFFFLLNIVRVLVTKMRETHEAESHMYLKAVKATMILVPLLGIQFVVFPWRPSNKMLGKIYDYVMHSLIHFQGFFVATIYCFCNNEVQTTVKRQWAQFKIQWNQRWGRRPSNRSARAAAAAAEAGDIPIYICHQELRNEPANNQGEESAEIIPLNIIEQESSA
T1 sequence (looked up) 2: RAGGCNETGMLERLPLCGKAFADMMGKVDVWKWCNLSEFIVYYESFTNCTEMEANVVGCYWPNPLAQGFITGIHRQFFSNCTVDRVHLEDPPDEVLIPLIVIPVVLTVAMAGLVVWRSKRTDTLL

B1: [19CD]-isoGlu-R-C( )-GTAT-C( )-ATERLAHFLVRSSF-Gly(Me)-A-Ile(Me)-LSSTEVGSETP-NH2 (Compd. 22) (peptide)
peptide: {C20 diacid}-[γGlu]RCGTATCATERLAHFLVRSSF[Sar]A[NMeI]LSSTEVGSETP-NH2
modifications: disulfide 3-8
SMILES: CC[C@H](C)[C@@H](C(=O)N[C@@H](CC(C)C)C(=O)N[C@@H](CO)C(=O)N[C@@H](CO)C(=O)N[C@H](C(=O)N[C@@H](CCC(=O)O)C(=O)N[C@H](C(=O)NCC(=O)N[C@@H](CO)C(=O)N[C@@H](CCC(=O)O)C(=O)N[C@H](C(=O)N1CCC[C@H]1C(N)=O)[C@@H](C)O)C(C)C)[C@@H](C)O)N(C)C(=O)[C@H](C)NC(=O)CN(C)C(=O)[C@H](Cc1ccccc1)NC(=O)[C@H](CO)NC(=O)[C@H](CO)NC(=O)[C@H](CCCNC(=N)N)NC(=O)[C@@H](NC(=O)[C@H](CC(C)C)NC(=O)[C@H](Cc1ccccc1)NC(=O)[C@H](Cc1c[nH]cn1)NC(=O)[C@H](C)NC(=O)[C@H](CC(C)C)NC(=O)[C@H](CCCNC(=N)N)NC(=O)[C@H](CCC(=O)O)NC(=O)[C@@H](NC(=O)[C@H](C)NC(=O)[C@@H]1CSSC[C@H](NC(=O)[C@H](CCCNC(=N)N)NC(=O)CC[C@H](NC(=O)CCCCCCCCCCCCCCCCCCC(=O)O)C(=O)O)C(=O)NCC(=O)N[C@@H]([C@@H](C)O)C(=O)N[C@@H](C)C(=O)N[C@@H]([C@@H](C)O)C(=O)N1)[C@@H](C)O)C(C)C
B2: [19CD]-isoGlu-R-C( )-PTAT-C( )-ATDRLAHFLVRSSF-Gly(Me)-A-Ile(Me)-LSSTDVGSDTP-NH2 (Compd. 23) (peptide)
peptide: {C20 diacid}-[γGlu]RCPTATCATDRLAHFLVRSSF[Sar]A[NMeI]LSSTDVGSDTP-NH2
modifications: disulfide 3-8
SMILES: CC[C@H](C)[C@@H](C(=O)N[C@@H](CC(C)C)C(=O)N[C@@H](CO)C(=O)N[C@@H](CO)C(=O)N[C@H](C(=O)N[C@@H](CC(=O)O)C(=O)N[C@H](C(=O)NCC(=O)N[C@@H](CO)C(=O)N[C@@H](CC(=O)O)C(=O)N[C@H](C(=O)N1CCC[C@H]1C(N)=O)[C@@H](C)O)C(C)C)[C@@H](C)O)N(C)C(=O)[C@H](C)NC(=O)CN(C)C(=O)[C@H](Cc1ccccc1)NC(=O)[C@H](CO)NC(=O)[C@H](CO)NC(=O)[C@H](CCCNC(=N)N)NC(=O)[C@@H](NC(=O)[C@H](CC(C)C)NC(=O)[C@H](Cc1ccccc1)NC(=O)[C@H](Cc1c[nH]cn1)NC(=O)[C@H](C)NC(=O)[C@H](CC(C)C)NC(=O)[C@H](CCCNC(=N)N)NC(=O)[C@H](CC(=O)O)NC(=O)[C@@H](NC(=O)[C@H](C)NC(=O)[C@@H]1CSSC[C@H](NC(=O)[C@H](CCCNC(=N)N)NC(=O)CC[C@H](NC(=O)CCCCCCCCCCCCCCCCCCC(=O)O)C(=O)O)C(=O)N2CCC[C@H]2C(=O)N[C@@H]([C@@H](C)O)C(=O)N[C@@H](C)C(=O)N[C@@H]([C@@H](C)O)C(=O)N1)[C@@H](C)O)C(C)C
B3: [19CD]-isoGlu-R-C( )-NTAT-C( )-ATQRLAHFLVRSSF-Gly(Me)-A-Ile(Me)-LSSTEVGSETP-NH2 (Compd. 24) (peptide)
peptide: {C20 diacid}-[γGlu]RCNTATCATQRLAHFLVRSSF[Sar]A[NMeI]LSSTEVGSETP-NH2
modifications: disulfide 3-8
SMILES: CC[C@H](C)[C@@H](C(=O)N[C@@H](CC(C)C)C(=O)N[C@@H](CO)C(=O)N[C@@H](CO)C(=O)N[C@H](C(=O)N[C@@H](CCC(=O)O)C(=O)N[C@H](C(=O)NCC(=O)N[C@@H](CO)C(=O)N[C@@H](CCC(=O)O)C(=O)N[C@H](C(=O)N1CCC[C@H]1C(N)=O)[C@@H](C)O)C(C)C)[C@@H](C)O)N(C)C(=O)[C@H](C)NC(=O)CN(C)C(=O)[C@H](Cc1ccccc1)NC(=O)[C@H](CO)NC(=O)[C@H](CO)NC(=O)[C@H](CCCNC(=N)N)NC(=O)[C@@H](NC(=O)[C@H](CC(C)C)NC(=O)[C@H](Cc1ccccc1)NC(=O)[C@H](Cc1c[nH]cn1)NC(=O)[C@H](C)NC(=O)[C@H](CC(C)C)NC(=O)[C@H](CCCNC(=N)N)NC(=O)[C@H](CCC(N)=O)NC(=O)[C@@H](NC(=O)[C@H](C)NC(=O)[C@@H]1CSSC[C@H](NC(=O)[C@H](CCCNC(=N)N)NC(=O)CC[C@H](NC(=O)CCCCCCCCCCCCCCCCCCC(=O)O)C(=O)O)C(=O)N[C@@H](CC(N)=O)C(=O)N[C@@H]([C@@H](C)O)C(=O)N[C@@H](C)C(=O)N[C@@H]([C@@H](C)O)C(=O)N1)[C@@H](C)O)C(C)C
B4: [19CD]-isoGlu-R-C( )-PTAT-C( )-ATDRLAHFLHRSSF-Gly(Me)-A-Ile(Me)-LSSTDVGSNTP-NH2 (Compd. 25) (peptide)
peptide: {C20 diacid}-[γGlu]RCPTATCATDRLAHFLHRSSF[Sar]A[NMeI]LSSTDVGSNTP-NH2
modifications: disulfide 3-8
SMILES: CC[C@H](C)[C@@H](C(=O)N[C@@H](CC(C)C)C(=O)N[C@@H](CO)C(=O)N[C@@H](CO)C(=O)N[C@H](C(=O)N[C@@H](CC(=O)O)C(=O)N[C@H](C(=O)NCC(=O)N[C@@H](CO)C(=O)N[C@@H](CC(N)=O)C(=O)N[C@H](C(=O)N1CCC[C@H]1C(N)=O)[C@@H](C)O)C(C)C)[C@@H](C)O)N(C)C(=O)[C@H](C)NC(=O)CN(C)C(=O)[C@H](Cc1ccccc1)NC(=O)[C@H](CO)NC(=O)[C@H](CO)NC(=O)[C@H](CCCNC(=N)N)NC(=O)[C@H](Cc1c[nH]cn1)NC(=O)[C@H](CC(C)C)NC(=O)[C@H](Cc1ccccc1)NC(=O)[C@H](Cc1c[nH]cn1)NC(=O)[C@H](C)NC(=O)[C@H](CC(C)C)NC(=O)[C@H](CCCNC(=N)N)NC(=O)[C@H](CC(=O)O)NC(=O)[C@@H](NC(=O)[C@H](C)NC(=O)[C@@H]1CSSC[C@H](NC(=O)[C@H](CCCNC(=N)N)NC(=O)CC[C@H](NC(=O)CCCCCCCCCCCCCCCCCCC(=O)O)C(=O)O)C(=O)N2CCC[C@H]2C(=O)N[C@@H]([C@@H](C)O)C(=O)N[C@@H](C)C(=O)N[C@@H]([C@@H](C)O)C(=O)N1)[C@@H](C)O
B5: [19CD]-isoGlu-R-C( )-GTAT-C( )-ATERLAHFLHRSSF-Gly(Me)-A-Ile(Me)-LSSTEVGSETP-NH2 (Compd. 26) (peptide)
peptide: {C20 diacid}-[γGlu]RCGTATCATERLAHFLHRSSF[Sar]A[NMeI]LSSTEVGSETP-NH2
modifications: disulfide 3-8
SMILES: CC[C@H](C)[C@@H](C(=O)N[C@@H](CC(C)C)C(=O)N[C@@H](CO)C(=O)N[C@@H](CO)C(=O)N[C@H](C(=O)N[C@@H](CCC(=O)O)C(=O)N[C@H](C(=O)NCC(=O)N[C@@H](CO)C(=O)N[C@@H](CCC(=O)O)C(=O)N[C@H](C(=O)N1CCC[C@H]1C(N)=O)[C@@H](C)O)C(C)C)[C@@H](C)O)N(C)C(=O)[C@H](C)NC(=O)CN(C)C(=O)[C@H](Cc1ccccc1)NC(=O)[C@H](CO)NC(=O)[C@H](CO)NC(=O)[C@H](CCCNC(=N)N)NC(=O)[C@H](Cc1c[nH]cn1)NC(=O)[C@H](CC(C)C)NC(=O)[C@H](Cc1ccccc1)NC(=O)[C@H](Cc1c[nH]cn1)NC(=O)[C@H](C)NC(=O)[C@H](CC(C)C)NC(=O)[C@H](CCCNC(=N)N)NC(=O)[C@H](CCC(=O)O)NC(=O)[C@@H](NC(=O)[C@H](C)NC(=O)[C@@H]1CSSC[C@H](NC(=O)[C@H](CCCNC(=N)N)NC(=O)CC[C@H](NC(=O)CCCCCCCCCCCCCCCCCCC(=O)O)C(=O)O)C(=O)NCC(=O)N[C@@H]([C@@H](C)O)C(=O)N[C@@H](C)C(=O)N[C@@H]([C@@H](C)O)C(=O)N1)[C@@H](C)O
B6: [19CD]-isoGlu-R-C( )-PTAT-C( )-ATDRLAHFLHRSSF-Gly(Me)-A-Ile(Me)-LSSTDVGSDTP-NH2 (Compd. 27) (peptide)
peptide: {C20 diacid}-[γGlu]RCPTATCATDRLAHFLHRSSF[Sar]A[NMeI]LSSTDVGSDTP-NH2
modifications: disulfide 3-8
SMILES: CC[C@H](C)[C@@H](C(=O)N[C@@H](CC(C)C)C(=O)N[C@@H](CO)C(=O)N[C@@H](CO)C(=O)N[C@H](C(=O)N[C@@H](CC(=O)O)C(=O)N[C@H](C(=O)NCC(=O)N[C@@H](CO)C(=O)N[C@@H](CC(=O)O)C(=O)N[C@H](C(=O)N1CCC[C@H]1C(N)=O)[C@@H](C)O)C(C)C)[C@@H](C)O)N(C)C(=O)[C@H](C)NC(=O)CN(C)C(=O)[C@H](Cc1ccccc1)NC(=O)[C@H](CO)NC(=O)[C@H](CO)NC(=O)[C@H](CCCNC(=N)N)NC(=O)[C@H](Cc1c[nH]cn1)NC(=O)[C@H](CC(C)C)NC(=O)[C@H](Cc1ccccc1)NC(=O)[C@H](Cc1c[nH]cn1)NC(=O)[C@H](C)NC(=O)[C@H](CC(C)C)NC(=O)[C@H](CCCNC(=N)N)NC(=O)[C@H](CC(=O)O)NC(=O)[C@@H](NC(=O)[C@H](C)NC(=O)[C@@H]1CSSC[C@H](NC(=O)[C@H](CCCNC(=N)N)NC(=O)CC[C@H](NC(=O)CCCCCCCCCCCCCCCCCCC(=O)O)C(=O)O)C(=O)N2CCC[C@H]2C(=O)N[C@@H]([C@@H](C)O)C(=O)N[C@@H](C)C(=O)N[C@@H]([C@@H](C)O)C(=O)N1)[C@@H](C)O
B7: [19CD]-isoGlu-R-C( )-GTAT-C( )-ATERLAHFLQRSSF-Gly(Me)-A-Ile(Me)-LSSTEVGSST-Hyp-NH2 (Compd. 28) (peptide)
peptide: {C20 diacid}-[γGlu]RCGTATCATERLAHFLQRSSF[Sar]A[NMeI]LSSTEVGSST[Hyp]-NH2
modifications: disulfide 3-8
SMILES: CC[C@H](C)[C@@H](C(=O)N[C@@H](CC(C)C)C(=O)N[C@@H](CO)C(=O)N[C@@H](CO)C(=O)N[C@H](C(=O)N[C@@H](CCC(=O)O)C(=O)N[C@H](C(=O)NCC(=O)N[C@@H](CO)C(=O)N[C@@H](CO)C(=O)N[C@H](C(=O)N1C[C@H](O)C[C@H]1C(N)=O)[C@@H](C)O)C(C)C)[C@@H](C)O)N(C)C(=O)[C@H](C)NC(=O)CN(C)C(=O)[C@H](Cc1ccccc1)NC(=O)[C@H](CO)NC(=O)[C@H](CO)NC(=O)[C@H](CCCNC(=N)N)NC(=O)[C@H](CCC(N)=O)NC(=O)[C@H](CC(C)C)NC(=O)[C@H](Cc1ccccc1)NC(=O)[C@H](Cc1c[nH]cn1)NC(=O)[C@H](C)NC(=O)[C@H](CC(C)C)NC(=O)[C@H](CCCNC(=N)N)NC(=O)[C@H](CCC(=O)O)NC(=O)[C@@H](NC(=O)[C@H](C)NC(=O)[C@@H]1CSSC[C@H](NC(=O)[C@H](CCCNC(=N)N)NC(=O)CC[C@H](NC(=O)CCCCCCCCCCCCCCCCCCC(=O)O)C(=O)O)C(=O)NCC(=O)N[C@@H]([C@@H](C)O)C(=O)N[C@@H](C)C(=O)N[C@@H]([C@@H](C)O)C(=O)N1)[C@@H](C)O

Molecular target: T1, human amylin receptor 3 (hAMYR3), hCTR2 …
Experiment: cell-based or functional assay

| Binder | hAMYR3 EC50 (nM); cAMP induction [nM] |
| --- | --- |
| B1 | 0.59 |
| B2 | 0.13 |
| B3 | 0.19 |
| B4 | 0.094 |
| B5 | 0.12 |
| B6 | 0.16 |
| B7 | 0.13 |
